Data on four proteins can be found in paper PMC11589706, “Cryo-EM structure of PML RBCC dimer reveals CC-mediated octopus-like nuclear body assembly mechanism” (Cell Discovery, 2024).

In general, stoichiometry N refers to the number of molecules, sites or subunits per partner or assembly.

Data set [1] concerns the molecule itself. The data set can be described thus: cross-linking; XL-MS: purified SEC fractions crosslinked with 2 mM BS3 at 4 °C for 2 h; trypsin digest, LC-MS/MS, pLink2; intra-subunit XLs of the monomer fraction subtracted from those of the dimer.
Data set [2] concerns the molecule itself. As to the kind of experiment: SEC; analytical size exclusion on Superdex 200 Increase 10/300 GL in 20 mM HEPES, pH 7.4, 100 mM NaCl, 4% glycerol; all truncations N-terminally fused to MBP. In general terms: Size exclusion chromatography separates by hydrodynamic size, large species first.
Data set [3] deals with the molecule itself. As to the kind of experiment: cryo-EM structure; MBP-PML_(46–256) dimer fraction from SEC, ~3 mg/mL; non-tilt and 40°-tilt data; C2 symmetry imposed; 5.3 Å overall.

B1: PML_(46–362) (domain or fragment, human, UniProt P29590 46-362, looked up)
chain: PASEEEFQFLRCQQCQAEAKCPKLLPCLHTLCSGCLEASGMQCPICQAPWPLGADTPALDNVFFESLQRRLSVYRQIVDAQAVCTRCKESADFWCFECEQLLCAKCFEAHQWFLKHEARPLAELRNQSVREFLDGTRKTNNIFCSNPNHRTPTLTSIYCRGCSKPLCCSCALLDSSHSELKCDISAEIQQRQEELDAMTQALQEQDSAFGAVHAQMHAAVGQLGRARAETEELIRERVRQVVAHVRAQERELLEAVDARYQRDYEEMASRLGRLDAVLQRIRTGSALVQRMKCYASDQEVLDMHGFLRQALCRLRQE
notes: PML (TRIM19), human, residues 46-362, the complete RBCC domain; also called truncated protein PML_(46–362); complete RBCC domain; source: E. coli BL21(DE3), purified; not shown: MBP, N-terminal, cleaved
B1: in data set [1], the binding result is reported as “binds”.

B2: MBP-PML_(46–362) (domain or fragment, human, UniProt P29590 46-362, looked up)
chain: PASEEEFQFLRCQQCQAEAKCPKLLPCLHTLCSGCLEASGMQCPICQAPWPLGADTPALDNVFFESLQRRLSVYRQIVDAQAVCTRCKESADFWCFECEQLLCAKCFEAHQWFLKHEARPLAELRNQSVREFLDGTRKTNNIFCSNPNHRTPTLTSIYCRGCSKPLCCSCALLDSSHSELKCDISAEIQQRQEELDAMTQALQEQDSAFGAVHAQMHAAVGQLGRARAETEELIRERVRQVVAHVRAQERELLEAVDARYQRDYEEMASRLGRLDAVLQRIRTGSALVQRMKCYASDQEVLDMHGFLRQALCRLRQE
notes: PML (TRIM19), human, residues 46-362; source: E. coli BL21(DE3), purified; not shown: MBP, N-terminal, kept
For B2, the binding result in data set [2] was “binds”.

B3: MBP-PML_(46–391) (domain or fragment, human, UniProt P29590 46-391, looked up)
chain: PASEEEFQFLRCQQCQAEAKCPKLLPCLHTLCSGCLEASGMQCPICQAPWPLGADTPALDNVFFESLQRRLSVYRQIVDAQAVCTRCKESADFWCFECEQLLCAKCFEAHQWFLKHEARPLAELRNQSVREFLDGTRKTNNIFCSNPNHRTPTLTSIYCRGCSKPLCCSCALLDSSHSELKCDISAEIQQRQEELDAMTQALQEQDSAFGAVHAQMHAAVGQLGRARAETEELIRERVRQVVAHVRAQERELLEAVDARYQRDYEEMASRLGRLDAVLQRIRTGSALVQRMKCYASDQEVLDMHGFLRQALCRLRQEEPQSLQAAVRTDGFDEFKVRLQDLSSCIT
notes: source: E. coli BL21(DE3), purified; not shown: MBP, N-terminal, kept
Regarding B3, the binding result in data set [2] was “binds”.

B4: MBP-PML_(46–256) (domain or fragment, human, UniProt P29590 46-256, looked up)
chain: PASEEEFQFLRCQQCQAEAKCPKLLPCLHTLCSGCLEASGMQCPICQAPWPLGADTPALDNVFFESLQRRLSVYRQIVDAQAVCTRCKESADFWCFECEQLLCAKCFEAHQWFLKHEARPLAELRNQSVREFLDGTRKTNNIFCSNPNHRTPTLTSIYCRGCSKPLCCSCALLDSSHSELKCDISAEIQQRQEELDAMTQALQEQDSAFGA
notes: Monomer and dimer fractions were separated by SEC; The cryo-EM model covers P46-S221; also called PML RBCC fragment; PML RBCC dimer; source: E. coli BL21(DE3), purified (amylose column, Superdex 200 Increase SEC); not shown: MBP, N-terminal, kept
For B4, the “stoichiometry N” value in data set [3] worked out at 2.
